According to PMC9352680, “A comprehensive thermodynamic model for RNA binding by the Saccharomyces cerevisiae Pumilio protein PUF4”:

T1: PUF4 RNA-binding domain (Saccharomyces cerevisiae, UniProt P25339 537-888)
T1 sequence: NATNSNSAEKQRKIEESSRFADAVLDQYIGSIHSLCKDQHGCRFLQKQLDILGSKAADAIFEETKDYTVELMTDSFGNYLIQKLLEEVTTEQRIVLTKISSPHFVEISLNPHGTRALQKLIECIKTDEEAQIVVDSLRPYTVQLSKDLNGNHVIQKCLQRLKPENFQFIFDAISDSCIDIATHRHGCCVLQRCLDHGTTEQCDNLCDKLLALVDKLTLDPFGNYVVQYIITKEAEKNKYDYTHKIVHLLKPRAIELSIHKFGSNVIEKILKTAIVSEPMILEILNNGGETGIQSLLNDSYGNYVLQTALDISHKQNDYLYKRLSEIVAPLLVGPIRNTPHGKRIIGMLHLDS


Target: T1, PUF4 RNA-binding domain
Experiment: Mg; RNA-MaP; 20 mM Na-HEPES pH 7.4, 30 mM KOAc, 0.75 mM MgCl2, 0.1% Tween-20, 5% glycerol, 0.1 mg/mL BSA, 2 mM DTT; 25 C; 0.0125-409.6 nM protein
Settings: tags: N-His6-TEV cleaved; C-SNAP kept, Cy3B-labelled; label: tethered on chip by stalled RNA polymerase

Binder	Kd [µM]
UCUCUUUGUAAUAAUCUCUU (ssRNA) [Ic_S1_P3E.1_K3.1_C3.1_H3.1_A3.1_[T5A]_[A6T]_F3.1_[T7A]_T3.1]	0.146
Ia_S4_P5E.1_K5.1_C5.1_H5.1_A5.1_[T6A]_F5.1_T5.1 (ssRNA) RNA: UUUGACAACUGAUCGUUCUUUCUUGUAUAAUUAUUCUUUCUCGAUCAGUUGUCUUU	0.00442
UCUCUUUGUAAUUGUCUCUU (ssRNA) [Ic_S1_P3E.1_K3.1_C3.1_H3.1_A3.1_[T5A]_[A6T]_F3.1_[A8G]_T3.1]	0.352
UCUCUUUGUAAUUCUCUCUU (ssRNA) [Ic_S1_P3E.1_K3.1_C3.1_H3.1_A3.1_[T5A]_[A6T]_F3.1_[A8C]_T3.1]	0.477
UCUCUUUGUAAUUUUCUCUU (ssRNA) [Ic_S1_P3E.1_K3.1_C3.1_H3.1_A3.1_[T5A]_[A6T]_F3.1_[A8T]_T3.1]	0.034
UCUCUUUGUAAAGCUCUCUU (ssRNA) [Ic_S1_P3E.1_K3.1_C3.1_H3.1_A3.1_[T5A]_F3.1_[T7G]_[A8C]_T3.1]	1
UCUCUUUGUAAAGUUCUCUU (ssRNA) [Ic_S1_P3E.1_K3.1_C3.1_H3.1_A3.1_[T5A]_F3.1_[T7G]_[A8T]_T3.1]	0.135
UCUCUUUGUAAACCUCUCUU (ssRNA) [Ic_S1_P3E.1_K3.1_C3.1_H3.1_A3.1_[T5A]_F3.1_[T7C]_[A8C]_T3.1]	0.568
UCUCUUUGUAAACUUCUCUU (ssRNA) [Ic_S1_P3E.1_K3.1_C3.1_H3.1_A3.1_[T5A]_F3.1_[T7C]_[A8T]_T3.1]	0.024
UCUCUUUGUAAAAGUCUCUU (ssRNA) [Ic_S1_P3E.1_K3.1_C3.1_H3.1_A3.1_[T5A]_F3.1_[T7A]_[A8G]_T3.1]	0.822
UCUCUUUGUAAAACUCUCUU (ssRNA) [Ic_S1_P3E.1_K3.1_C3.1_H3.1_A3.1_[T5A]_F3.1_[T7A]_[A8C]_T3.1]	0.369
UCUCUUUGUAUGGCUCUCUU (ssRNA) [Ic_S1_P3E.1_K3.1_C3.1_H3.1_A3.1_[A6G]_F3.1_[T7G]_[A8C]_T3.1]	1.73
Ia_S4_P5E.1_K5.1_C5.1_H5.1_A5.1_[A7C]_F5.1_T5.1 (ssRNA) RNA: UUUGACAACUGAUCGUUCUUUCUUGUAUUCUUAUUCUUUCUCGAUCAGUUGUCUUU	0.00551
UCUCUUUGUAUGGUUCUCUU (ssRNA) [Ic_S1_P3E.1_K3.1_C3.1_H3.1_A3.1_[A6G]_F3.1_[T7G]_[A8T]_T3.1]	0.509
UCUCUUUGUAUGCCUCUCUU (ssRNA) [Ic_S1_P3E.1_K3.1_C3.1_H3.1_A3.1_[A6G]_F3.1_[T7C]_[A8C]_T3.1]	1.72
UCUCUUUGUAUGCUUCUCUU (ssRNA) [Ic_S1_P3E.1_K3.1_C3.1_H3.1_A3.1_[A6G]_F3.1_[T7C]_[A8T]_T3.1]	0.434
UCUCUUUGUAUGACUCUCUU (ssRNA) [Ic_S1_P3E.1_K3.1_C3.1_H3.1_A3.1_[A6G]_F3.1_[T7A]_[A8C]_T3.1]	1.07
UCUCUUUGUAUGAUUCUCUU (ssRNA) [Ic_S1_P3E.1_K3.1_C3.1_H3.1_A3.1_[A6G]_F3.1_[T7A]_[A8T]_T3.1]	0.0422
UCUCUUUGUAUCGGUCUCUU (ssRNA) [Ic_S1_P3E.1_K3.1_C3.1_H3.1_A3.1_[A6C]_F3.1_[T7G]_[A8G]_T3.1]	1.95
UCUCUUUGUAUCGCUCUCUU (ssRNA) [Ic_S1_P3E.1_K3.1_C3.1_H3.1_A3.1_[A6C]_F3.1_[T7G]_[A8C]_T3.1]	0.859
UCUCUUUGUAUCGUUCUCUU (ssRNA) [Ic_S1_P3E.1_K3.1_C3.1_H3.1_A3.1_[A6C]_F3.1_[T7G]_[A8T]_T3.1]	0.326
UCUCUUUGUAUCCCUCUCUU (ssRNA) [Ic_S1_P3E.1_K3.1_C3.1_H3.1_A3.1_[A6C]_F3.1_[T7C]_[A8C]_T3.1]	0.531

Binder	Kd [µM]
UCUCUUUGUAUCCUUCUCUU (ssRNA) [Ic_S1_P3E.1_K3.1_C3.1_H3.1_A3.1_[A6C]_F3.1_[T7C]_[A8T]_T3.1]	0.0398
UCUCUUUGUAUAGCUCUCUU (ssRNA) [Ic_S1_P3E.1_K3.1_C3.1_H3.1_A3.1_F3.1_[T7G]_[A8C]_T3.1]	0.0821
UCUCUUUGUAUCAGUCUCUU (ssRNA) [Ic_S1_P3E.1_K3.1_C3.1_H3.1_A3.1_[A6C]_F3.1_[T7A]_[A8G]_T3.1]	0.483
UCUCUUUGUAUCACUCUCUU (ssRNA) [Ic_S1_P3E.1_K3.1_C3.1_H3.1_A3.1_[A6C]_F3.1_[T7A]_[A8C]_T3.1]	0.127
UCUCUUUGUAUUGGUCUCUU (ssRNA) [Ic_S1_P3E.1_K3.1_C3.1_H3.1_A3.1_[A6T]_F3.1_[T7G]_[A8G]_T3.1]	1.36
UCUCUUUGUAUUGUUCUCUU (ssRNA) [Ic_S1_P3E.1_K3.1_C3.1_H3.1_A3.1_[A6T]_F3.1_[T7G]_[A8T]_T3.1]	0.0381
UCUCUUUGUAUUCGUCUCUU (ssRNA) [Ic_S1_P3E.1_K3.1_C3.1_H3.1_A3.1_[A6T]_F3.1_[T7C]_[A8G]_T3.1]	0.523
UCUCUUUGUAUUCCUCUCUU (ssRNA) [Ic_S1_P3E.1_K3.1_C3.1_H3.1_A3.1_[A6T]_F3.1_[T7C]_[A8C]_T3.1]	0.113
UCUCUUUGUAUUCUUCUCUU (ssRNA) [Ic_S1_P3E.1_K3.1_C3.1_H3.1_A3.1_[A6T]_F3.1_[T7C]_[A8T]_T3.1]	0.0325
UCUCUUUGUAUUAGUCUCUU (ssRNA) [Ic_S1_P3E.1_K3.1_C3.1_H3.1_A3.1_[A6T]_F3.1_[T7A]_[A8G]_T3.1]	0.349
UCUCUUUGUAUUACUCUCUU (ssRNA) [Ic_S1_P3E.1_K3.1_C3.1_H3.1_A3.1_[A6T]_F3.1_[T7A]_[A8C]_T3.1]	0.167
UCUCUUUGUAUUAUUCUCUU (ssRNA) [Ic_S1_P3E.1_K3.1_C3.1_H3.1_A3.1_[A6T]_F3.1_[T7A]_[A8T]_T3.1]	0.0145
UCUCUUUGUAUAGUUCUCUU (ssRNA) [Ic_S1_P3E.1_K3.1_C3.1_H3.1_A3.1_F3.1_[T7G]_[A8T]_T3.1]	0.011
UCUCUUUGUAUAUAUCUCUU (ssRNA) [If_S1_P3E.1_K3.1_C3.1_H3.1_A3.1_F3.1_T3.1]	0.00491
UCUCUUUGUAGCGUGUCUCUU (ssRNA) [Ic_S1_P4E.1_K4.1_C4.1_H4.1_A4.1_[T5G]_[A6C]_[T7G]_F4.1_[A9G]_T4.1]	2
UCUCUUUGUAGCGUCUCUCUU (ssRNA) [Ic_S1_P4E.1_K4.1_C4.1_H4.1_A4.1_[T5G]_[A6C]_[T7G]_F4.1_[A9C]_T4.1]	1.71
UCUCUUUGUAGCGUUUCUCUU (ssRNA) [Ic_S1_P4E.1_K4.1_C4.1_H4.1_A4.1_[T5G]_[A6C]_[T7G]_F4.1_[A9T]_T4.1]	0.964
UCUCUUUGUAGCCGGUCUCUU (ssRNA) [Ic_S1_P4E.1_K4.1_C4.1_H4.1_A4.1_[T5G]_[A6C]_[T7C]_F4.1_[T8G]_[A9G]_T4.1]	> 2.3
UCUCUUUGUAGCCGUUCUCUU (ssRNA) [Ic_S1_P4E.1_K4.1_C4.1_H4.1_A4.1_[T5G]_[A6C]_[T7C]_F4.1_[T8G]_[A9T]_T4.1]	> 2.3
UCUCUUUGUAGCCGAUCUCUU (ssRNA) [Ic_S1_P4E.1_K4.1_C4.1_H4.1_A4.1_[T5G]_[A6C]_[T7C]_F4.1_[T8G]_T4.1]	> 2.3
UCUCUUUGUAGCCCGUCUCUU (ssRNA) [Ic_S1_P4E.1_K4.1_C4.1_H4.1_A4.1_[T5G]_[A6C]_[T7C]_F4.1_[T8C]_[A9G]_T4.1]	> 2.3
UCUCUUUGUAGCCCUUCUCUU (ssRNA) [Ic_S1_P4E.1_K4.1_C4.1_H4.1_A4.1_[T5G]_[A6C]_[T7C]_F4.1_[T8C]_[A9T]_T4.1]	> 2.3

Binder	Kd [µM]
UCUCUUUGUAGCCACUCUCUU (ssRNA) [Ic_S1_P4E.1_K4.1_C4.1_H4.1_A4.1_[T5G]_[A6C]_[T7C]_F4.1_[T8A]_[A9C]_T4.1]	> 2.3
UCUCUUUGUAUACGUCUCUU (ssRNA) [Ic_S1_P3E.1_K3.1_C3.1_H3.1_A3.1_F3.1_[T7C]_[A8G]_T3.1]	0.082
UCUCUUUGUAGCCAUUCUCUU (ssRNA) [Ic_S1_P4E.1_K4.1_C4.1_H4.1_A4.1_[T5G]_[A6C]_[T7C]_F4.1_[T8A]_[A9T]_T4.1]	1.89
UCUCUUUGUAGCCUUUCUCUU (ssRNA) [Ic_S1_P4E.1_K4.1_C4.1_H4.1_A4.1_[T5G]_[A6C]_[T7C]_F4.1_[A9T]_T4.1]	0.679
UCUCUUUGUAGCCUAUCUCUU (ssRNA) [Ic_S1_P4E.1_K4.1_C4.1_H4.1_A4.1_[T5G]_[A6C]_[T7C]_F4.1_T4.1]	0.0343
UCUCUUUGUAGCAGCUCUCUU (ssRNA) [Ic_S1_P4E.1_K4.1_C4.1_H4.1_A4.1_[T5G]_[A6C]_[T7A]_F4.1_[T8G]_[A9C]_T4.1]	> 2.3
UCUCUUUGUAGCAGUUCUCUU (ssRNA) [Ic_S1_P4E.1_K4.1_C4.1_H4.1_A4.1_[T5G]_[A6C]_[T7A]_F4.1_[T8G]_[A9T]_T4.1]	1.44
UCUCUUUGUAGCACGUCUCUU (ssRNA) [Ic_S1_P4E.1_K4.1_C4.1_H4.1_A4.1_[T5G]_[A6C]_[T7A]_F4.1_[T8C]_[A9G]_T4.1]	> 2.3
UCUCUUUGUAGCACUUCUCUU (ssRNA) [Ic_S1_P4E.1_K4.1_C4.1_H4.1_A4.1_[T5G]_[A6C]_[T7A]_F4.1_[T8C]_[A9T]_T4.1]	0.949
UCUCUUUGUAGCACAUCUCUU (ssRNA) [Ic_S1_P4E.1_K4.1_C4.1_H4.1_A4.1_[T5G]_[A6C]_[T7A]_F4.1_[T8C]_T4.1]	1.45
UCUCUUUGUAGCAACUCUCUU (ssRNA) [Ic_S1_P4E.1_K4.1_C4.1_H4.1_A4.1_[T5G]_[A6C]_[T7A]_F4.1_[T8A]_[A9C]_T4.1]	1.21
UCUCUUUGUAGCAAUUCUCUU (ssRNA) [Ic_S1_P4E.1_K4.1_C4.1_H4.1_A4.1_[T5G]_[A6C]_[T7A]_F4.1_[T8A]_[A9T]_T4.1]	0.857
UCUCUUUGUAUACCUCUCUU (ssRNA) [Ic_S1_P3E.1_K3.1_C3.1_H3.1_A3.1_F3.1_[T7C]_[A8C]_T3.1]	0.0489
UCUCUUUGUAGCAAAUCUCUU (ssRNA) [Ic_S1_P4E.1_K4.1_C4.1_H4.1_A4.1_[T5G]_[A6C]_[T7A]_F4.1_[T8A]_T4.1]	0.833
UCUCUUUGUAGCAUCUCUCUU (ssRNA) [Ic_S1_P4E.1_K4.1_C4.1_H4.1_A4.1_[T5G]_[A6C]_[T7A]_F4.1_[A9C]_T4.1]	0.398
UCUCUUUGUAGCAUUUCUCUU (ssRNA) [Ic_S1_P4E.1_K4.1_C4.1_H4.1_A4.1_[T5G]_[A6C]_[T7A]_F4.1_[A9T]_T4.1]	0.0324
UCUCUUUGUAGCUGCUCUCUU (ssRNA) [Ic_S1_P4E.1_K4.1_C4.1_H4.1_A4.1_[T5G]_[A6C]_F4.1_[T8G]_[A9C]_T4.1]	2.07
UCUCUUUGUAGCUCUUCUCUU (ssRNA) [Ic_S1_P4E.1_K4.1_C4.1_H4.1_A4.1_[T5G]_[A6C]_F4.1_[T8C]_[A9T]_T4.1]	2.02
UCUCUUUGUAGCUUGUCUCUU (ssRNA) [Ic_S1_P4E.1_K4.1_C4.1_H4.1_A4.1_[T5G]_[A6C]_F4.1_[A9G]_T4.1]	1.59
UCUCUUUGUAGCUUCUCUCUU (ssRNA) [Ic_S1_P4E.1_K4.1_C4.1_H4.1_A4.1_[T5G]_[A6C]_F4.1_[A9C]_T4.1]	0.612
